Laboratory results: patent publication US7285654

Test system: T1, GST-IκBβ (1-54)
T1 sequence: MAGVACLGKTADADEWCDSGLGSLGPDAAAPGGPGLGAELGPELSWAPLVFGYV

For “IKK signalsome (stimulus-inducible IκB kinase complex) immunopurified from TNFα-stimulated HeLa cells”, the “phosphorylation of substrate (kinase assay)” value was “the kinase phosphorylated GST-IκBβ (1-54), albeit with lower affinity”.
